From IntAct's records for PubMed 17412836

B1: Protein Nef (Human immunodeficiency virus type 1 group M subtype B (isolate Lai)), Q9QPN3 (parent)
chain: MGGKWSKSSVVGWPAVRERMRRAEPAADGVGAVSRDLEKHGAITSSNTAATNADCAWLEAQEEEEVGFPVTPQVPLRPMTYKAAVDLSHFLKEKGGLEGLIHSQRRQDILDLWIYHTQGYFPDWQNYTPEPGVRYPLTFGWCYKLVPVEPDKVEEANKGENTRLLHPVSLHGMDDPEREVLEWRFDSRLAFHHVARELHPEY
partner: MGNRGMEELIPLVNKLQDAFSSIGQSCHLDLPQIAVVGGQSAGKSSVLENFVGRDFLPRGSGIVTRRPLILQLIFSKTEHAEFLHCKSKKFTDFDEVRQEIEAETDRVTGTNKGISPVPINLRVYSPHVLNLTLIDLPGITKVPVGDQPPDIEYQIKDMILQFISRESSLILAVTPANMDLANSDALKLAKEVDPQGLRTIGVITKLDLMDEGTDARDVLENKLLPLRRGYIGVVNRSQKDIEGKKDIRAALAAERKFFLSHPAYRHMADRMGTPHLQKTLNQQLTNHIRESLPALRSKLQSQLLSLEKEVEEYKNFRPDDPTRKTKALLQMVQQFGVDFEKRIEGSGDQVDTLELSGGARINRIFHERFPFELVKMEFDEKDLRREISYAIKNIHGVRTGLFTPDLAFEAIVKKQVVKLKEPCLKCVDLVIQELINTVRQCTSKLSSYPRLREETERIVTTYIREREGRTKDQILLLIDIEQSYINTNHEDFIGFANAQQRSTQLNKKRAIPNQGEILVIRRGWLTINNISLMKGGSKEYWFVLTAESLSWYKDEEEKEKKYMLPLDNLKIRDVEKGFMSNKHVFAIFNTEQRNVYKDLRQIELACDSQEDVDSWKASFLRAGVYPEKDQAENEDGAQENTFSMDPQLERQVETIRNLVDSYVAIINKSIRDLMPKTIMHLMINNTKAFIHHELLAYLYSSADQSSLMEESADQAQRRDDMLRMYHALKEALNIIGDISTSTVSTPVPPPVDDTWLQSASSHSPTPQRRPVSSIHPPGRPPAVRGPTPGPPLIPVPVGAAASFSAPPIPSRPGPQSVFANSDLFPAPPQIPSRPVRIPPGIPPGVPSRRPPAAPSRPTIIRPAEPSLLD

Variants of: B1
Settings: with dyn2_human DNM2, P50570

Question: Which “effect of a mutation on the interaction” value does the source give for L112A here?
Answer: decreasing interaction strength

Question: For F121A;D123A, which “effect of a mutation on the interaction” value is on record?
Answer: disrupting interaction strength

Question: Which “effect of a mutation on the interaction” value does the source give for D123A here?
Answer: decreasing interaction strength

Question: With G2A;G3A as the variant, how does the “effect of a mutation on the interaction” value read?
Answer: disrupting interaction strength

Question: For F121A, which “effect of a mutation on the interaction” value is on record?
Answer: decreasing interaction strength
